Data: IntAct's records for PubMed 31515488

Legend:
sdcb1_human SDCBP = sdcb1_human SDCBP (UniProt O00560)
prdc1_human PRTFDC1 = prdc1_human PRTFDC1 (UniProt Q9NRG1)
tri23_human TRIM23 = tri23_human TRIM23 (UniProt P36406)
rgs20_human RGS20 = rgs20_human RGS20 (UniProt O76081)
k1h1_human KRT31 = k1h1_human KRT31 (UniProt Q15323)
trip6_human TRIP6 = trip6_human TRIP6 (UniProt Q15654)
gpix_human GP9 = gpix_human GP9 (UniProt P14770)
grn_human GRN = grn_human GRN (UniProt P28799)
gas7_human GAS7 = gas7_human GAS7 (UniProt O60861)
edad_human EDARADD = edad_human EDARADD (UniProt Q8WWZ3)
edad_human EDARADD, sequence (Q8WWZ3 whole entry): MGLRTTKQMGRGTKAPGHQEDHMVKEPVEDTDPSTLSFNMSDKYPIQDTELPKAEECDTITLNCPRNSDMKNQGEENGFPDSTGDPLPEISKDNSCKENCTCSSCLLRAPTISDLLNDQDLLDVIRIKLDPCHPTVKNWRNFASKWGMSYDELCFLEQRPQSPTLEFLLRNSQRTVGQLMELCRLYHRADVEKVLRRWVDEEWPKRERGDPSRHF

pnma1_human PNMA1 = pnma1_human PNMA1 (UniProt Q8ND90)
kctd1_human KCTD1 = kctd1_human KCTD1 (UniProt Q719H9)
dhb14_human HSD17B14 = dhb14_human HSD17B14 (UniProt Q9BPX1)
mtnb_human APIP = mtnb_human APIP (UniProt Q96GX9)
mtnb_human APIP, sequence (Q96GX9 whole entry): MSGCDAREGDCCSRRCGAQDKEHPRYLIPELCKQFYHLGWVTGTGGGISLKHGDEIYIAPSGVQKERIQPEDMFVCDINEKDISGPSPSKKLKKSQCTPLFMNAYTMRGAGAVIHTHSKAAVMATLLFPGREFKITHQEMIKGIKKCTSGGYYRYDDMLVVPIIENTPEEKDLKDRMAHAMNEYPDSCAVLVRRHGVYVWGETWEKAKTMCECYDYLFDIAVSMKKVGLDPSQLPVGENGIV

mbip1_human MBIP = mbip1_human MBIP (UniProt Q9NS73)
ei2ba_human EIF2B1 = ei2ba_human EIF2B1 (UniProt Q14232)
ei2ba_human EIF2B1, sequence (Q14232 whole entry): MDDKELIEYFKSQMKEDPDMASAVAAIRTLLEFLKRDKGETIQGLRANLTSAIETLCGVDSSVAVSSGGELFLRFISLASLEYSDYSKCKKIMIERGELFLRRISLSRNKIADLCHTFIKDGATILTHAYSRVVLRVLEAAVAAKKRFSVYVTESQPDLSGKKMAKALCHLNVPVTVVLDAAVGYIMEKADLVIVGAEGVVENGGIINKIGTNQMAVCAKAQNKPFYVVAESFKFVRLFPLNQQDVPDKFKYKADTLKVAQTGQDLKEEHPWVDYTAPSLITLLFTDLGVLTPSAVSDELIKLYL

pygm_human PYGM = pygm_human PYGM (UniProt P11217)
pygm_human PYGM, sequence (P11217 whole entry): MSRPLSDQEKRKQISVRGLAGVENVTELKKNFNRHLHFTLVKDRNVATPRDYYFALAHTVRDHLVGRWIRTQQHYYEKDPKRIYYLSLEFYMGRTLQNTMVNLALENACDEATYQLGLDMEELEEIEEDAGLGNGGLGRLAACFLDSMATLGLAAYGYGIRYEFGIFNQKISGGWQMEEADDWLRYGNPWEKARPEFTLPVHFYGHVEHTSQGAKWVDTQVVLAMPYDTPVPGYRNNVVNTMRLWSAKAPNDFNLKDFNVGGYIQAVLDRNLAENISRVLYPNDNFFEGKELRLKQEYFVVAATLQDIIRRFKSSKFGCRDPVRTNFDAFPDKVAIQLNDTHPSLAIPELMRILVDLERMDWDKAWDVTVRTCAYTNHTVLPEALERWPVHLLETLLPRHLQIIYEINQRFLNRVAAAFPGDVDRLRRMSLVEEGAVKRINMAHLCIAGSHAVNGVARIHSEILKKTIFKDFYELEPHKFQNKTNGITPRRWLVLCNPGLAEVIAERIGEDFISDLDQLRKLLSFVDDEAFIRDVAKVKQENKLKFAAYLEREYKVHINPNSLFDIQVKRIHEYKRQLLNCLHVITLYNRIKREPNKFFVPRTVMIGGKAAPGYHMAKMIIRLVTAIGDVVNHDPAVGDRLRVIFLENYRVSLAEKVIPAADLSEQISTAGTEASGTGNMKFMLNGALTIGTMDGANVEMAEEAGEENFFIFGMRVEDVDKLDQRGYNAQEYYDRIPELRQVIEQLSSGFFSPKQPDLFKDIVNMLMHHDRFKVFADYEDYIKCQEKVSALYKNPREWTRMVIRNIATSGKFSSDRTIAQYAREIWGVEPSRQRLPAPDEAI

dctp1_human DCTPP1 = dctp1_human DCTPP1 (UniProt Q9H773)
dctp1_human DCTPP1, sequence (Q9H773 whole entry): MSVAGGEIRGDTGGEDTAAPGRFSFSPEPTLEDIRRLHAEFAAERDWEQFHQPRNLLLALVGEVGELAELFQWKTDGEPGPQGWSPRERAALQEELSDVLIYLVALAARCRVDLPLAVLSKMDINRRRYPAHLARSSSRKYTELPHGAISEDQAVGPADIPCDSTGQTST

rpia_human RPIA = rpia_human RPIA (UniProt P49247)
frih_human FTH1 = frih_human FTH1 (UniProt P02794)
ca050_human C1orf50 = ca050_human C1orf50 (UniProt Q9BV19)
ca050_human C1orf50, sequence (Q9BV19 whole entry): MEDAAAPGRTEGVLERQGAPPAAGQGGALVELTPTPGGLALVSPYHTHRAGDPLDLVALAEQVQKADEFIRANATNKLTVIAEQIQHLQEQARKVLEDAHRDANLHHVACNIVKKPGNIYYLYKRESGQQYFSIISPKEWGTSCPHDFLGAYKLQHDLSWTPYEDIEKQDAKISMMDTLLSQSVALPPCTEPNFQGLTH

gnmt_human GNMT = gnmt_human GNMT (UniProt Q14749)
ncoa5_human NCOA5 = ncoa5_human NCOA5 (UniProt Q9HCD5)
prps2_human PRPS2 = prps2_human PRPS2 (UniProt P11908)
nud14_human NUDT14 = nud14_human NUDT14 (UniProt O95848)
thap1_human THAP1 = thap1_human THAP1 (UniProt Q9NVV9)
cdd_human CDA = cdd_human CDA (UniProt P32320)
cdd_human CDA, sequence (P32320 whole entry): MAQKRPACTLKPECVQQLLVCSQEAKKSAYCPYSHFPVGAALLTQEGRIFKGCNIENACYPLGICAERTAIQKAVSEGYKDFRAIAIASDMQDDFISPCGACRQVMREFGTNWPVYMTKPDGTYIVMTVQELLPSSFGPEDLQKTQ

birc2_human BIRC2 = birc2_human BIRC2 (UniProt Q13490)
pnma5_human PNMA5 = pnma5_human PNMA5 (UniProt Q96PV4)
dnja3_human DNAJA3 = dnja3_human DNAJA3 (UniProt Q96EY1)
CCDC102B = CCDC102B (UniProt Q68D86)
CCDC102B, sequence (Q68D86 whole entry): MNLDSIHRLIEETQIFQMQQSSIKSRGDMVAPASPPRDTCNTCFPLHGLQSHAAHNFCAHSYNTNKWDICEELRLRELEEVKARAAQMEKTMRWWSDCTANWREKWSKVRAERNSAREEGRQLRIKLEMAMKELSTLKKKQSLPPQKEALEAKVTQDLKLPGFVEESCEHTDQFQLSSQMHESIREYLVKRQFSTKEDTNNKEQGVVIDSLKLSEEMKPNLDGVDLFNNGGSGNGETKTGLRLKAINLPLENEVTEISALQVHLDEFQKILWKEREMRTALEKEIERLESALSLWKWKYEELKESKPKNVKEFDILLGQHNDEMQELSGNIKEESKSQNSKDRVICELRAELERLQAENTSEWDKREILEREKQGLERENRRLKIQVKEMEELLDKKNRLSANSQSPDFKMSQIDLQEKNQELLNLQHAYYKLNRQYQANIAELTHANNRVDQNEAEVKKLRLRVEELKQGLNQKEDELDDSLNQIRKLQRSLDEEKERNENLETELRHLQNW

cdr2_human CDR2 = cdr2_human CDR2 (UniProt Q01850)
actg_human ACTG1 = actg_human ACTG1 (UniProt P63261)
tolip_human TOLLIP = tolip_human TOLLIP (UniProt Q9H0E2)
actb_human ACTB = actb_human ACTB (UniProt P60709)
TSC22D1 = TSC22D1 (UniProt Q15714)
cryaa_human CRYAA = cryaa_human CRYAA (UniProt P02489)
lonf1_human LONRF1 = lonf1_human LONRF1 (UniProt Q17RB8)
mif_human MIF = mif_human MIF (UniProt P14174)
mif_human MIF, sequence (P14174 whole entry): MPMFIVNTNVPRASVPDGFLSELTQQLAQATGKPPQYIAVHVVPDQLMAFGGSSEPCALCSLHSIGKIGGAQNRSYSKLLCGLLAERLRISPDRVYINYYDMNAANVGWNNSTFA

vac14_human VAC14 = vac14_human VAC14 (UniProt Q08AM6)
lztl1_human LZTFL1 = lztl1_human LZTFL1 (UniProt Q9NQ48)
lztl1_human LZTFL1, sequence (Q9NQ48 whole entry): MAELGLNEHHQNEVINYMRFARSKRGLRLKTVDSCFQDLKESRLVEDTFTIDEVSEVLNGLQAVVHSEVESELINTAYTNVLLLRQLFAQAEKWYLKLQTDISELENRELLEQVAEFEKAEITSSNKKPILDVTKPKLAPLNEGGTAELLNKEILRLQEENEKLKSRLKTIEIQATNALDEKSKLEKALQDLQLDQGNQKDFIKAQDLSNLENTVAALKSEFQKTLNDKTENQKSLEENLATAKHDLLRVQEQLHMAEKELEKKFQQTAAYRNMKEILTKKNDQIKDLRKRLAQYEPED

ndka_human NME1 = ndka_human NME1 (UniProt P15531)
ndka_human NME1, sequence (P15531 whole entry): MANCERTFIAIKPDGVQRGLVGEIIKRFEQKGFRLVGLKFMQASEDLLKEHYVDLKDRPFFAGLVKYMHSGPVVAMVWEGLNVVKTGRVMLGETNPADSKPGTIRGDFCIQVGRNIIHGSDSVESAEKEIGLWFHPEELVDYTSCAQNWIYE

rnf14_human RNF14 = rnf14_human RNF14 (UniProt Q9UBS8)
rn115_human RNF115 = rn115_human RNF115 (UniProt Q9Y4L5)
dtx2_human DTX2 = dtx2_human DTX2 (UniProt Q86UW9)
otub1_human OTUB1 = otub1_human OTUB1 (UniProt Q96FW1)
trim1_human MID2 = trim1_human MID2 (UniProt Q9UJV3)

Measured: effect of a mutation on the interaction

Ubiquitin-conjugating enzyme E2 D4 (Homo sapiens), Q9Y2X8 G27S, sequence (Q9Y2X8 whole entry G27S): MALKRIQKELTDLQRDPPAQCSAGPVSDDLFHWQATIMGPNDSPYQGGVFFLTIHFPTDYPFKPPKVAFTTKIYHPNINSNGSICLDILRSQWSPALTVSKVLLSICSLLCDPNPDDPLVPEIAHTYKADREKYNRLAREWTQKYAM
Homeobox protein Hox-A1 (Homo sapiens), P49639 S98R, sequence (P49639 whole entry S98R): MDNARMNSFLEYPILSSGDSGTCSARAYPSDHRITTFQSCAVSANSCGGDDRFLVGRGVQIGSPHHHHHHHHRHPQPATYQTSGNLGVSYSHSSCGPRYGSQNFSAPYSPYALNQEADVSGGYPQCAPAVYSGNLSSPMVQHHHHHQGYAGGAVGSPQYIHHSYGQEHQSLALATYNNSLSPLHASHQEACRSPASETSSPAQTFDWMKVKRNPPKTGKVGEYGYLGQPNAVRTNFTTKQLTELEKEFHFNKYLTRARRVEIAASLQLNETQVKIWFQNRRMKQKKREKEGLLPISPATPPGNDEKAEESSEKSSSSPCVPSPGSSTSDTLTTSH
FAD synthase (Homo sapiens), Q8NFF5 R228H, sequence (Q8NFF5 whole entry R228H): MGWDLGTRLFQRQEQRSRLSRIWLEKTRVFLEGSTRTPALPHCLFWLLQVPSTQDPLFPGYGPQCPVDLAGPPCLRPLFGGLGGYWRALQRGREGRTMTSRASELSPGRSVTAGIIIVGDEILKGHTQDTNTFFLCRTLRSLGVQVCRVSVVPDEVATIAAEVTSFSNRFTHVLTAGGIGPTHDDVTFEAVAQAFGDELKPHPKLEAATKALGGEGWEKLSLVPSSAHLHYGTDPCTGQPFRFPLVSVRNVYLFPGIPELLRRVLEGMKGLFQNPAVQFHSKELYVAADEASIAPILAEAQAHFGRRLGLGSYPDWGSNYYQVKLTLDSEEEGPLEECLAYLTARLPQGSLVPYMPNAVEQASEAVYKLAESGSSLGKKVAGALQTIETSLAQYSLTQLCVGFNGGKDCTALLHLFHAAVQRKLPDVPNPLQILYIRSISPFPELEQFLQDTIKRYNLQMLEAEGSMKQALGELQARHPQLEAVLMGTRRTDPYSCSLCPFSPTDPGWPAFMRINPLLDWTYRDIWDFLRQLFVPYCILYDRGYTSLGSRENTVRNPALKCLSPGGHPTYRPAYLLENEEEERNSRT
grn_human GRN, sequence (P28799 whole entry): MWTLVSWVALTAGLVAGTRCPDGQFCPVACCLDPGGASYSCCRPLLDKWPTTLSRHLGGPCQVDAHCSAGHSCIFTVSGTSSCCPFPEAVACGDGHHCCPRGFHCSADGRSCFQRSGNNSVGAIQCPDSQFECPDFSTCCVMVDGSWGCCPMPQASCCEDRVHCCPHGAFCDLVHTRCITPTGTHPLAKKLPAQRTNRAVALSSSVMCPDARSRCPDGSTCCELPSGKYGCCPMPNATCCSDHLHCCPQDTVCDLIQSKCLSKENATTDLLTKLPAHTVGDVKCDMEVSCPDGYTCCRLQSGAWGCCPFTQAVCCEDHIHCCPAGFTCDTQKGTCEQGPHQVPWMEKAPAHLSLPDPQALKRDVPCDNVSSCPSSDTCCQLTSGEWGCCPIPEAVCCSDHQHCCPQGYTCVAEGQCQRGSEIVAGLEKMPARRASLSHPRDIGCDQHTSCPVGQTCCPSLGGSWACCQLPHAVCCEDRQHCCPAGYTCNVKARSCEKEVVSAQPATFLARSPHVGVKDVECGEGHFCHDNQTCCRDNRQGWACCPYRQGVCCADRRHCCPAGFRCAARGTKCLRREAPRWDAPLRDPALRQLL

FAD synthase (Homo sapiens), Q8NFF5 R228H
with no effect: sdcb1_human SDCBP | prdc1_human PRTFDC1 | tri23_human TRIM23

Homeobox protein Hox-A1 (Homo sapiens), P49639 S98R
with no effect: rgs20_human RGS20 | k1h1_human KRT31 | trip6_human TRIP6 | gpix_human GP9 | grn_human GRN

Protein N-terminal glutamine amidohydrolase (Homo sapiens), Q96HA8 A52G
not listed: sdcb1_human SDCBP | prdc1_human PRTFDC1 | tri23_human TRIM23 | rgs20_human RGS20 | k1h1_human KRT31 | trip6_human TRIP6 | gpix_human GP9 | grn_human GRN | rnf14_human RNF14 | rn115_human RNF115 | dtx2_human DTX2 | otub1_human OTUB1 | trim1_human MID2
with no effect: all other assays above

Ubiquitin-conjugating enzyme E2 D4 (Homo sapiens), Q9Y2X8 G27S
with no effect: rnf14_human RNF14 | rn115_human RNF115 | dtx2_human DTX2 | otub1_human OTUB1 | trim1_human MID2
